Laboratory results: PMC9482650, “Quantitative fragmentomics allow affinity mapping of interactomes” (Nature Communications, 2022)

How the values were obtained:
Experiment in all cases: holdup assay
Design in all cases: key: below the threshold = too weak to quantify, mostly under pKd 3.1 to 4
Conditions in all cases: plain residues with an end cap or a label only (N-terminal biotin on a linker: ado-ado)
APBA3_1, O96018 = target: T1, APBA3_1, O96018
T1 sequence (O96018 389-490, limits assumed, looked up): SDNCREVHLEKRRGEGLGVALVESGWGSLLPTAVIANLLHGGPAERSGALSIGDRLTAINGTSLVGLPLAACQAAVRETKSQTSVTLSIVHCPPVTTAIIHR

CASK, O14936 = target: CASK, O14936
DLG4_2, P78352 = target: DLG4_2, P78352
DVL3, Q92997 = target: T2, DVL3, Q92997
T2 sequence (Q92997 244-331, limits assumed, looked up): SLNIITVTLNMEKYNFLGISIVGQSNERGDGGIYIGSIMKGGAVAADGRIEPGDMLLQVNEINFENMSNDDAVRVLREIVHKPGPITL

FRMPD2_3, Q68DX3 = target: FRMPD2_3, Q68DX3
GRID2IP_1, A4D2P6 = target: GRID2IP_1, A4D2P6
GRIP1_3, Q9Y3R0 = target: T3, GRIP1_3, Q9Y3R0
T3 sequence (Q9Y3R0 247-346, limits assumed, looked up): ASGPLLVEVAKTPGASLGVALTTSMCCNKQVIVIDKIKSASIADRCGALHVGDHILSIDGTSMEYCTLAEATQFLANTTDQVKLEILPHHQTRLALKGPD

IL16_1, Q14005 = target: IL16_1, Q14005
Inadl_3, Q8NI35 = target: Inadl_3, Q8NI35
LIMK2, P53671 = target: LIMK2, P53671
LNX1_1, Q8TBB1 = target: LNX1_1, Q8TBB1
LNX2_2, Q8N448 = target: T4, LNX2_2, Q8N448
T4 sequence (Q8N448 334-432, limits assumed, looked up): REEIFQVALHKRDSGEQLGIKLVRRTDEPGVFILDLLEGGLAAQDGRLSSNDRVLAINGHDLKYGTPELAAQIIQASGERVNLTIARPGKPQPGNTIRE

MAGI1_2, Q96QZ7 = target: MAGI1_2, Q96QZ7
MAGI2_4, Q86UL8 = target: MAGI2_4, Q86UL8
MPDZ_10, O75970 = target: T5, MPDZ_10, O75970
T5 sequence (O75970 1624-1722, limits assumed, looked up): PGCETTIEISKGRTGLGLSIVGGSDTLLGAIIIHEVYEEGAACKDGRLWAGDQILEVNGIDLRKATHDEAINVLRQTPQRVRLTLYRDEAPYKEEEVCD

MPDZ_5, O75970 = target: T6, MPDZ_5, O75970
T6 sequence (O75970 695-796, limits assumed, looked up): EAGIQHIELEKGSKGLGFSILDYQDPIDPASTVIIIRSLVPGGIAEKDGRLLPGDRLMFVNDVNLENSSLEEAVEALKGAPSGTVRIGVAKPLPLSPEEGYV

PARD3B_1, Q8TEW8 = target: T7, PARD3B_1, Q8TEW8
T7 sequence (Q8TEW8 196-299, limits assumed, looked up): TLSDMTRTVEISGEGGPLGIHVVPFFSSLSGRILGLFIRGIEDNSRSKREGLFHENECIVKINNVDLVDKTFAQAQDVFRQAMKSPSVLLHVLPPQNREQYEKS

PCLO, Q9Y6V0 = target: T8, PCLO, Q9Y6V0
T8 sequence (Q9Y6V0 4491-4600, limits assumed, looked up): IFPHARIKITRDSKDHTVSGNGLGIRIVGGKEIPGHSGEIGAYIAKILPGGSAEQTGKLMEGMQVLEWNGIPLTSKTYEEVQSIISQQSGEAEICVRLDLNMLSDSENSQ

PDZD7_3, Q9H5P4 = target: T9, PDZD7_3, Q9H5P4
T9 sequence (Q9H5P4 857-944, limits assumed, looked up): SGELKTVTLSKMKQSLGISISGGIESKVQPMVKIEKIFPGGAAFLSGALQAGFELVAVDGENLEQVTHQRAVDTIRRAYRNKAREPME

PDZRN4_1, Q6ZMN7 = target: PDZRN4_1, Q6ZMN7
RADIL, Q96JH8 = target: T10, RADIL, Q96JH8
T10 sequence (Q96JH8 971-1071, limits assumed, looked up): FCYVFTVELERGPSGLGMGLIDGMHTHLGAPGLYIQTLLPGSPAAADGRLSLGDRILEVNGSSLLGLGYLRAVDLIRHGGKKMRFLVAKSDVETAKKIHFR

SHANK1, Q9Y566 = target: T11, SHANK1, Q9Y566
T11 sequence (Q9Y566 658-767, limits assumed, looked up): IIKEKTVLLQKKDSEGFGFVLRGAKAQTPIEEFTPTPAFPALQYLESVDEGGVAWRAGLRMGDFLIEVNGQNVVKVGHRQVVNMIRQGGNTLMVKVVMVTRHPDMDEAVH

SNTA1, Q13424 = target: T12, SNTA1, Q13424
T12 sequence (Q13424 82-180, limits assumed, looked up): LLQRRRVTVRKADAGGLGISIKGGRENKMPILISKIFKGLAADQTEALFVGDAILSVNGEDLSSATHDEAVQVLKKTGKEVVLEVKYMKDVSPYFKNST

SNTG1, Q9NSN8 = target: T13, SNTG1, Q9NSN8
T13 sequence (Q9NSN8 52-150, limits assumed, looked up): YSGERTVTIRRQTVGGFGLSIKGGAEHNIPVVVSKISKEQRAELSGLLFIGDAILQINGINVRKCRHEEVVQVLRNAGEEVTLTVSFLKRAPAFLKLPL

CASK, O14936, sequence (O14936 487-570): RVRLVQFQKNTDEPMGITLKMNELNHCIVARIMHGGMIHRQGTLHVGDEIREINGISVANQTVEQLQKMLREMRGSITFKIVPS
LIMK2, P53671, sequence (P53671 143-248): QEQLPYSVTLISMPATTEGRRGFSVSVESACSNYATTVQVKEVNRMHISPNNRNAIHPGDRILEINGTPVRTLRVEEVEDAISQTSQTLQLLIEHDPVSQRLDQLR
GRID2IP_1, A4D2P6, sequence (A4D2P6 1-87): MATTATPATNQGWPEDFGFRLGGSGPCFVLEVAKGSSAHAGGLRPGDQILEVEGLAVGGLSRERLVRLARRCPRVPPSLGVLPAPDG
LNX1_1, Q8TBB1, sequence (Q8TBB1 261-371): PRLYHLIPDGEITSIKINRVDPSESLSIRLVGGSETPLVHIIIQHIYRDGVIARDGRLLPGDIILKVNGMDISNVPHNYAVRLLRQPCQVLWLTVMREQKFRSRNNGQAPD
IL16_1, Q14005, sequence (Q14005 210-306): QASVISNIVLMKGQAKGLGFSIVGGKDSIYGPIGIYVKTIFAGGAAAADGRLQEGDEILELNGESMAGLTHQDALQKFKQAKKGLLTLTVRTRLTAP
FRMPD2_3, Q68DX3, sequence (Q68DX3 1073-1166): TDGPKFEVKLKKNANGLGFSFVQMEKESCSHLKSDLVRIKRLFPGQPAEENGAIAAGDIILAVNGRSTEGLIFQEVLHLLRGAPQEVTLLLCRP
PDZRN4_1, Q6ZMN7, sequence (Q6ZMN7 213-318): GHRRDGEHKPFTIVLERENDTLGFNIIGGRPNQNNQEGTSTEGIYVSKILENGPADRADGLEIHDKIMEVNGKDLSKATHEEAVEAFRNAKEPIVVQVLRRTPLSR
MAGI1_2, Q96QZ7, sequence (Q96QZ7 456-580): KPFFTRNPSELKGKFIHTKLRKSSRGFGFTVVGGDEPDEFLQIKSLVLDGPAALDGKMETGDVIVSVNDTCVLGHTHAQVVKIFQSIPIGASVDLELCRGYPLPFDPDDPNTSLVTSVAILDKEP
MAGI2_4, Q86UL8, sequence (Q86UL8 772-865): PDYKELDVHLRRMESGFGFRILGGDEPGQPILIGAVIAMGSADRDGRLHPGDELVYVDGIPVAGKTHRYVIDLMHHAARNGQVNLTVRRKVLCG
Inadl_3, Q8NI35, sequence (Q8NI35 359-469): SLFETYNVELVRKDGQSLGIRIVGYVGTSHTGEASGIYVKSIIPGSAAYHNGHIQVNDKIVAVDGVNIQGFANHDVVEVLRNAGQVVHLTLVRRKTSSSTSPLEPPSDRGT
DLG4_2, P78352, sequence (P78352 155-259): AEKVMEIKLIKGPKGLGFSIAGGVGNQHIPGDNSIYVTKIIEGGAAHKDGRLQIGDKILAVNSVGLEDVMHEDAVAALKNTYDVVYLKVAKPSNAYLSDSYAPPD

Binder | pKd (APBA3_1, O96018) | pKd (CASK, O14936) | pKd (DLG4_2, P78352) | pKd (DVL3, Q92997) | pKd (FRMPD2_3, Q68DX3) | pKd (GRID2IP_1, A4D2P6) | pKd (GRIP1_3, Q9Y3R0) | pKd (IL16_1, Q14005) | pKd (Inadl_3, Q8NI35) | pKd (LIMK2, P53671) | pKd (LNX1_1, Q8TBB1) | pKd (LNX2_2, Q8N448) | pKd (MAGI1_2, Q96QZ7) | pKd (MAGI2_4, Q86UL8) | pKd (MPDZ_10, O75970) | pKd (MPDZ_5, O75970) | pKd (PARD3B_1, Q8TEW8) | pKd (PCLO, Q9Y6V0) | pKd (PDZD7_3, Q9H5P4) | pKd (PDZRN4_1, Q6ZMN7) | further results
QFTLRHWLKV [SLC6A3, Q01959] | below the threshold | below the threshold | below the threshold | below the threshold | below the threshold | below the threshold | below the threshold | below the threshold | below the threshold | below the threshold | below the threshold | 4.84 | below the threshold | 3.5 | below the threshold | below the threshold | 3.87 | below the threshold | below the threshold | below the threshold | pKd (RADIL, Q96JH8): 4.42; pKd (SHANK1, Q9Y566): below the threshold; pKd (SNTA1, Q13424): below the threshold; pKd (SNTG1, Q9NSN8): below the threshold
PAPGQHTTQI [STK16, O75716] | below the threshold | below the threshold | 3.87 | below the threshold | below the threshold | below the threshold | below the threshold | below the threshold | below the threshold | below the threshold | below the threshold | below the threshold | below the threshold | 3.5 | below the threshold | below the threshold | 3.69 | below the threshold | 5 | below the threshold | pKd (RADIL, Q96JH8): 3.75; pKd (SHANK1, Q9Y566): 3.75; pKd (SNTA1, Q13424): below the threshold; pKd (SNTG1, Q9NSN8): below the threshold
DQPLEKSTKL [AKAP10, O43572] | below the threshold | below the threshold | below the threshold | below the threshold | below the threshold | below the threshold | below the threshold | below the threshold | below the threshold | below the threshold | below the threshold | below the threshold | below the threshold | below the threshold | below the threshold | below the threshold | 4.15 | below the threshold | 4.54 | 3.92 | pKd (RADIL, Q96JH8): below the threshold; pKd (SHANK1, Q9Y566): 5.33; pKd (SNTA1, Q13424): 3.71; pKd (SNTG1, Q9NSN8): below the threshold
PASAKGPLGV [CLDN19, Q8N6F1] | below the threshold | below the threshold | below the threshold | below the threshold | below the threshold | below the threshold | below the threshold | below the threshold | below the threshold | below the threshold | below the threshold | below the threshold | below the threshold | below the threshold | below the threshold | below the threshold | below the threshold | below the threshold | below the threshold | below the threshold | pKd (RADIL, Q96JH8): below the threshold; pKd (SHANK1, Q9Y566): below the threshold; pKd (SNTA1, Q13424): below the threshold; pKd (SNTG1, Q9NSN8): below the threshold
DSATVRTYSC [PPFIA1, Q13136] | below the threshold | below the threshold | below the threshold | below the threshold | below the threshold | below the threshold | below the threshold | below the threshold | below the threshold | below the threshold | below the threshold | 4.02 | below the threshold | below the threshold | below the threshold | below the threshold | 3.57 | below the threshold | below the threshold | below the threshold | pKd (RADIL, Q96JH8): below the threshold; pKd (SHANK1, Q9Y566): below the threshold; pKd (SNTA1, Q13424): below the threshold; pKd (SNTG1, Q9NSN8): below the threshold
RELVMRVTTV [MARCHF4, Q9P2E8] | below the threshold | below the threshold | 5.28 | below the threshold | below the threshold | below the threshold | below the threshold | 4.33 | 4.03 | below the threshold | 3.98 | 5.27 | 4.81 | 4.82 | 4.35 | below the threshold | below the threshold | below the threshold | 5.28 | 3.88 | pKd (RADIL, Q96JH8): 4.74; pKd (SHANK1, Q9Y566): 3.58; pKd (SNTA1, Q13424): 5.1; pKd (SNTG1, Q9NSN8): 4.95
